Patent US20050053993A1, “Uses of an endothelial cell receptor” (priority 2002, published 2005)
Substitutions are numbered along the chain they refer to. Names and notes keep the numbering of the source. Values after ≈ are worked out from the molar mass of the structure shown. Values belong to the molecule of their own block, whether it stands above or below them.

Columns and labels:
[1] = target: GRP78 on the surface of human cells (EAHY, HMVEC, HT1080) (human) (UniProt P11021); test: Scatchard analysis of 125I-dog K5 binding to endothelial cells
Chain of GRP78 on the surface of human cells (EAHY, HMVEC, HT1080) (human) (P11021 19-654): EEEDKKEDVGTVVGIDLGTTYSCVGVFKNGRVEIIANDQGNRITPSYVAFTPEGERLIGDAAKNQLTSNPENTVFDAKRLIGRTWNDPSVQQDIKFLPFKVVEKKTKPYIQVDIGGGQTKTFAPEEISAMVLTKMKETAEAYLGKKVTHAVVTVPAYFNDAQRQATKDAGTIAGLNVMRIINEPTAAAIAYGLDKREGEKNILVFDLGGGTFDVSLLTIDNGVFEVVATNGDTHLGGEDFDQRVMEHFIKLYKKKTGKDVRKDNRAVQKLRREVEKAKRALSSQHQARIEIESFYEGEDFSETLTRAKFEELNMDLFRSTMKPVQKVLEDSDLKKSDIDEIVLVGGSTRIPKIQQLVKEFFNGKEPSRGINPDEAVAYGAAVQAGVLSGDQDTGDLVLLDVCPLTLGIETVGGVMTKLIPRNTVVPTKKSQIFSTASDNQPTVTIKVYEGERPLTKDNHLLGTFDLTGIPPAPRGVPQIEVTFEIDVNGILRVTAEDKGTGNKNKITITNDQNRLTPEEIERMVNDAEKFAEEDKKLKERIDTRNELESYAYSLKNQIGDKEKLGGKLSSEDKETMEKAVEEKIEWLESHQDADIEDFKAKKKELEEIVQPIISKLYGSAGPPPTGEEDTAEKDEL

[2] = target: GRP78 on the surface of human cells (EAHY, HMVEC, HT1080) (human) (UniProt P11021); test: cell-based or functional assay
[3] = target: GRP78 on the surface of human cells (EAHY, HMVEC, HT1080) (human) (UniProt P11021); test: Scatchard analysis of 125I-dog K5 binding to endothelial cells (50,000 cells per well, 1 hour room temperature)
HT1080 = test: Tumor cell proliferation, HT1080; format: cell-based, human; conditions: Homo sapiens, HT-1080; HT1080, 72 hours
Experimental: (§1) Cell Proliferation Assay. The effect of rK5 and rK5 peptides on endothelial cells were assessed using a proliferation assay with 1% BSA and 3 ng/ml bFGF in serum-free media. Relative cell numbers in each well of a 96 well microplate after incubation for 72 hours in the absence or presence of inhibitors were determined by using the AQueous cell proliferation assay (Promega, San Luis Obispo, Calif.). For all other cell lines tested for proliferation, minimal growth media was used (Cao, Y., Ji, R., Davidson, D., Schaller, J., Marti, D., Sohndel, S., McCance, S., O'Reilly, M., Llinas, M., and Folkman, J. Kringle domains of human angiostatin. Characterization of the anti-proliferative activity on endothelial cells. (1996) J. Biol. Chem. 271, 29461-29467). Results are presented as the percent inhibition of control cell (bFGF-induced) proliferation.

B16F10 = test: Tumor cell proliferation, B16F10; format: cell-based; conditions: Mus musculus, B16-F10; B16F10, 72 hours
Experimental: as §1

P388 = test: Tumor cell proliferation, P388; format: cell-based; conditions: Mus musculus; P388, 72 hours
Experimental: as §1

HT-29 = test: Tumor cell proliferation, HT-29; format: cell-based; conditions: Homo sapiens; HT-29, 72 hours
Experimental: as §1

D54 = test: Tumor cell proliferation, D54; format: cell-based, human; conditions: Homo sapiens; D54, 72 hours
Experimental: as §1

LNCaP = test: Tumor cell proliferation, LNCaP; format: cell-based; conditions: Homo sapiens, 72 hours
Experimental: as §1

[4] = target: T1, GRP78 on the surface of human cells (EAHY, HMVEC, HT1080) (human, UniProt P11021 19-654); test: labelled K5 binding to endothelial cells (FIG. 10A)
T1 construct: whole, on cells; also called glucose-regulated protein 78; BIP
T1 sequence (P11021 19-654): as above

[5] = target: T1, GRP78 on the surface of human cells …; test: cell-based or functional assay
[6] = target: T1, GRP78 on the surface of human cells …; test: cell-based or functional assay; remark: listed apart in the source
[7] = target: T2, yeast-expressed recombinant human GRP78 (rGRP78) (human, UniProt P11021 19-654, limits assumed); test: equilibrium dialysis of rGRP78 and 3H-K5 (FIG. 14A)
T2 construct: also called recombinant GRP78
T2 sequence (P11021 19-654 limits assumed): as the sequence (P11021 19-654) above

[8] = target: T3, recombinant human GRP78 (rGRP78) (Homo sapiens, UniProt P11021); test: Equilibrium dialysis of rGRP78 and 3HK5; format: binding; conditions: competition dialysis, 2 nM GRP78 and 2 nM 3HK5; mutant up to 25-fold excess of GRP78
T3 construct: host or cells: yeast
T3 sequence (P11021 19-654): as above
Experimental: FIG. 14A is a graph showing equilibrium dialysis of recombinant GRP78 (rGRP78) and ^3HK5. ^3HK5 was added to one side of an equilibrium chamber at concentrations from 0.1 to 3 nM. 2 nM GRP78 was added to the other side of the chamber with a […] mwco filter between. ^3HK5 was allowed to equilibrate to both side of the chamber for 72 hours at room temperature. The amount of ^3HK5 on the GRP78 side of the chamber was compared to chamber with ^3HK5 alone to obtain the bound verses free rK5 distribution.
FIG. 14B is a graph showing competition binding dialysis rGRP78 and ^3HK5. Experiments were performed with 2 nM GRP78 and 2 nM ^3HK5 using rK5(K82A) mutant and unlabeled rK5 at various concentrations from 0.5 to 50 nM. The amount of ^3HK5 on both sides of the chamber was measured after 72 hours and compared to the control.
Binding of rK5 to rGRP78 was measured using equilibrium dialysis (Kariv I, Cao H, Oldenburg K R. Development of a high throughput equilibrium dialysis method. J Pharm Sci. 2001 May; 90(5):580-87). In the top well of a 96 well equilibrium dialyzer (molecular weight cut off 50K Daltons, Harvard Apparatus, Holliston, M A) 150 μl of 10 nM rGRP78 was added. In the reciprocal (bottom) chamber, 150 μl of increasing concentrations from 0.1 to 50 nM ^3HK5 was added. The chambers were shaken at room temperature for 72 hours. […]

HMVECs = test: Competition of 3HK5 binding to endothelial cells; parameters: species or system human; conditions: 2 nM 3HK5; rK5(K82A) up to 500 nM
Experimental: Each K5 peptide or a N-terminal antibody to GRP78 was added to HMVECs at various concentrations for 1 hour at room temperature. Cells were washed and the amount of ^3HK5 bound was counted.
Binding of human ^125IrK5 to Endothelial Cells: Tritium-labeled rK5 was added to monolayers of 50,000 HMVEC cells that were either starved or stimulated for 16 hours by 15 ng/ml bFGF and 5 ng/ml VEGF in 96 well plates. The number of counts remaining bound to the cells after extensive washing determined total amount of rK5 bound (Dudani A K, Ganz P R. Endothelial cell surface actin serves as a binding site for plasminogen, tissue plasminogen activator and lipoprotein(a). Br J Haematol. 1996 October; 95(1): 168-78). Binding of ^125IK5 (dog) to Endothelial Cells and rK5 to Recombinant GRP78: The same methods as described above for the expression and purification of human K5 were used to express dog rK5 in E. coli. ^125IK5 (dog) was added to the wells and incubated at room temperature for 1 hour. After 1 hour the cells were washed and lysed with M-Per (Pierce, Racine, Wis.) and the amount of ^125IK5 (dog) bound was counted. Scatchard plot analysis was performed using Prism (GraphPad Software, Inc., San Diego, Calif.) software. Competition binding against 5 nM ^125IK5 (dog) was tested using a monoclonal antibody against GRP78 (N-20, Santa Cruz, Calif.) or a monoclonal antibody against K5 (Green Mountain Antibodies, Burlington, Vt.). The antibodies were added to HMVECs at various concentrations for 1 hour at room temperature. Cells were washed and the amount of bound ^125IK5 (dog) bound was counted. Competition binding was also tested against 2 nM 3HK5. K5 peptides or a c-terminal antibody to GRP78 (A-129, Santa Cruz, Calif.) were added to HMVECs at various concentrations for 1 hour at room temperature. Cells were washed, lysed and the amount of ^3HK5 bound was estimated by scintillation counting.

binding sites per cell (binding sites per cell) [1]: 32500 | IC50, inhibition of VEGF stimulated HMVEC migration [2]: 0.5 nM | Kd [3]: 0.8 nM
Molecule: recombinant dog kringle 5, radioiodinated (^125IrK5 (dog)) (ligand)

IC50 (HT1080): 2 ± 0.3 ng/mL (≈ 3.68 nM) | IC50 (B16F10): 3.2 ± 0.4 ng/mL (≈ 5.89 nM) | IC50 (P388): 2.6 ± 0.2 ng/mL (≈ 4.78 nM) | IC50 (HT-29): 118 ± 8 ng/mL (≈ 217 nM) | IC50 (D54): 5 ± 0.4 ng/mL (≈ 9.2 nM) | IC50 (LNCaP): 410 ± 100 ng/mL (≈ 754 nM)
Molecule: COc1cccc2c1C(=O)c1c(O)c3c(c(O)c1C2=O)C[C@@](O)(C(=O)CO)C[C@@H]3O[C@H]1C[C@H](N)[C@H](O)[C@H](C)O1 [Adriamycin, reference compound]
effect against D54 cell growth in combination with rK5 (D54 human glioma cells; Adriamycin 50 nM in combination with rK5, 72 hours): very effective | inhibition of D54 cell growth, Adriamycin alone (D54 human glioma cells; Adriamycin 50 nM, 72 hours): did not inhibit

Kd [4]: 0.8 nM | IC50, inhibition of VEGF stimulated HMVEC migration [5]: 0.2 nM | IC50, endothelial cell migration assay (^3HK5) [6]: 0.2 nM | apoptosis of HT1080 cells under hypoxic conditions [6]: > 2 fold | Kd [7]: ~0.7 nM
B1: recombinant human kringle 5 (rK5), Kringle 5 (450-543) of human plasminogen (ligand, UniProt P00747 469-562, looked up)
chain: LLPDVETPSEEDCMFGNGKGYRGKRATTVTGTPCQDWAAQEPHRHSIFTPETNPRAGLEKNYCRNPDGDVGGPWCYTTNPRKLYDYCDVPQCAA
modifications: tritium-labelled where printed as ^3HK5
notes: range 450-543; Made in E. coli (His-tag removed by enterokinase) and in Pichia pastoris; Labelled and unlabelled rK5 are treated as one molecule; also called ^3HK5; H^3K5

blocking of 3HK5 binding to rGRP78 [8]: did not block binding
B2: rK5(K82A): mutant rK5(K82A) (protein)
chain: B1 chain with K82A
blocking of 3HK5 binding to endothelial cells (HMVECs): did not inhibit
